Measurements reported in patent US20240400717A1, “Antibody Binding to CHI3L1 for Treating Cancer” (National Cheng Kung University, priority 2021, published 2024).

Columns and labels:
[1] = biological target: CHI3L1-receptor(s) interaction on HCT116, SW480, SW620, PANC1 and MiaPaCa-2 (Homo sapiens, UniProt P36222); assay: Flow cytometry blockage of rCHI3L1-receptor(s) interaction, colorectal and pancreatic cancer cell lines; format: cell-based; details: HCT116, SW480, SW620, PANC1, MiaPaCa-2, flow cytometry
Procedure: CHI3L1 have been reported to interact with several receptors on cancer cells, and trigger downstream signaling for cancer cell growth, proliferation and anti-apoptosis (Kamba et al. 2013; Lee et al. 2016). […] His-tagged rCHI3L1 was added for CHI3L1-receptor(s) interaction. Anti-His antibody AHAb with fluorescent F recognized CHI3L1-receptor(s) R complex for detection (left, FIG. 4A). Once fully human mAbs (nCHI3L1 Ab) blocked the CHI3L1-receptor(s) interaction, the fluorescent F signals were decreased (right, FIG. 4A) and cell signaling CS was blockade.
(§1) Four selected clones of mAbs including R4-4, R4-54, 293R3-2, and 293R3-4 were further tested for blocking effect on human colorectal (HCT116, SW480, and SW620) and pancreatic cancer cell lines (PANC1 and MiaPaCa-2). […] P values were determined by one-way ANOVA. * P<0.05, ** P<0.01, *** P<0.001, **** P<0.0001. For binding specificity examination, we further coated different concentration of recombinant CHI3L1 protein, and two other major proteins in chitinase family including human chitotriosidase-1 (CHIT1) and CHI3L2 from 2.5 μg/ml to 0 μg/ml, on 96-well plate.

CHI3L2 = biological target: T1, CHI3L2 (Homo sapiens, UniProt Q15782); assay: ELISA binding specificity, CHI3L2; details: mAbs 1 μg/ml; coated protein 2.5 μg/ml to 0 μg/ml
T1 sequence (Q15782 27-390): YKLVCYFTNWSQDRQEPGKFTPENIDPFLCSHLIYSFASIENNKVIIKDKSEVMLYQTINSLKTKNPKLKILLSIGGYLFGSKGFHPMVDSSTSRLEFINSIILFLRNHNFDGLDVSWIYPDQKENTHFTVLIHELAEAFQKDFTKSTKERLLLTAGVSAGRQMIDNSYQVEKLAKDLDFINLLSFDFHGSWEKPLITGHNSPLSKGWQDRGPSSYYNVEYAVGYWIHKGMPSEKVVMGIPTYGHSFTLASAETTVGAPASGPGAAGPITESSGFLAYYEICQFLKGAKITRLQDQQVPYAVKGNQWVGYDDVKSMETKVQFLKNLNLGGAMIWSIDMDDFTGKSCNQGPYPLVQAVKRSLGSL
Procedure: as §1

HCT116 and A549 cells = assay: Immunoblot of rCHI3L1-induced AKT and ERK phosphorylation, HCT116 and A549; format: cell-based, human; details: HCT116 and A549, time course
Procedure: The involvement of CHI3L1 in intracellular signaling pathways has been reported. For example, CHI3L1 binding to CD44 activates protein kinase B (AKT) and extracellular signal-regulated kinase (ERK) signaling to promote cancer progression (Chen, Jiang et al. 2021). Thus, we tested whether mAb clones R4-4, R4-54, 293R3-2, and 293R3-4 could attenuate AKT and ERK phosphorylation in human pancreatic (PANC1), colorectal (HCT116), and lung (A549) cancer cell lines. PANC1 cells were treated with rCHI3L1 (100 ng/ml) only or rCHI3L1 with different dose of mAbs as indicated for 20 minutes.

[2] = system: MiaPaCa-2, SW480 and A549 cells; assay: Wound healing assay with rCHI3L1; format: cell-based, human; details: MiaPaCa-2, SW480, A549; 16 hours
Procedure: Since AKT regulates cell migration, we further performed wound healing assay to examine the anti-migratory effect of mAbs on pancreatic (MiaPaCa-2), colorectal (SW480), and lung (A549) cells. We observed that after 16 hours, the wound closure area was increased compared to that in control groups upon rCHI3L1 treatment. […] Taken together, our fully human monoclonal CHI3L1 neutralizing antibody clones R4-4, R4-54, 293R3-2, and 293R3-4 blocked the CHI3L1 induced signaling and cell behaviors of tumor cells. The data was presented as mean±S.D. (n=3 per group). P values were determined by one-way ANOVA. * P<0.05, ** P<0.01, *** P<0.001, **** P<0.0001.

hCHI3L1/flag-His = biological target: T2, hCHI3L1/flag-His (Homo sapiens, UniProt P36222); assay: In tandem epitope binning on Octet Red96; format: binding; details: for epitope cluster: among four anti-CHI3L1 mAbs; for competitive binding class, CHI3L1 293R3-2: paired with CHI3L1 293R3-2; for Epitope Binning Heat Map value, CHI3L1 293R3-2: paired with CHI3L1 293R3-2, 100 nM each; for competitive binding class, CHI3L1 293R3-4: paired with CHI3L1 293R3-4; for competitive binding class, CHI3L1 R4-4: paired with CHI3L1 R4-4; for Epitope Binning Heat Map value, CHI3L1 R4-4: paired with CHI3L1 R4-4, 100 nM each; for competitive binding class, CHI3L1 R4-54: paired with CHI3L1 R4-54; for Epitope Binning Heat Map value, CHI3L1 R4-54: paired with CHI3L1 R4-54, 100 nM each; for Epitope Binning Heat Map value, CHI3L1 293R3-4: paired with CHI3L1 293R3-4, 100 nM each
T2 construct: human CHI3L1 extracellular domain fused with flag and His tag
Procedure: In order to know the epitopic coverage for those four antibodies to increase the success of therapeutic CHI3L1 antibody development, epitope binning is used to characterize the binding site of mAbs to the corresponding antigen and summarized in the Table 4. In epitope binning, mAbs specific to the same target protein are tested pairwise against all mAbs in a set to assess whether they block one another's binding to a specific site of the antigen or not. The mAbs that block binding to the same epitope are “binned” together. mAbs within the same bin often function similarly, so epitope bins can narrow down the choices to fewer candidates for investigators to choose from. The in tandem epitope binning assay conducted on Octet Red96 comprised a five-step binding cycle; 1) a buffer baseline was established for 30 sec, 2) 100 nM hCHI3L1/flag-His was captured for 5 min, 3) 100 nM mAb array was loaded to saturate the captured antigen for 10 min, 4) 100 nM of the test mAb was bound for 5 min, and 5) the capture surfaces were regenerated for 30 sec. Anti-His surfaces were regenerated with 10 mM glycine pH 1.7. Raw data was processed using ForteBio's Data Analysis HT Software 11.1 and the antibody pairs were assessed for competitive binding. Additional binding by the second antibody indicates an unoccupied epitope (non-competitor, marked as *c in Table 4), while no binding indicates epitope blocking (competitor, marked as *b in Table 4) and self-competing antibodies were marked as *a in Table 4. Among four anti-CHI3L1 mAbs, there are two epitope clusters.

MiaPaCa cells = assay: MiaPaCa orthotopic NOD-SCID mice model; details: for level of CHI3L1 in intratumoral region and plasma: end of experiment; for infiltrated macrophages in tumor sections (F4/80+, CD206+): immunofluorescence; for angiogenesis indicated by CD31 expression / tumor size: mAb 5 mg/kg i.v., gemcitabine 50 mg/kg i.p.; for tumor size: Day 7, 14, 21, 28, sacrificed day 34
Procedure: Specifically, experimental design of tumor growth inhibition in vivo. MiaPaCa cells (5×10^6) were injected into pancreas of NOD-SCID mice at Day 0. […] Mice were sacrificed on day 34. […] Since fibrosis and angiogenesis are two major issues during tumor progression, we compared the fibrosis and angiogenesis level within each groups.

Chain of CHI3L1-receptor(s) interaction on HCT116, SW480, SW620, PANC1 and MiaPaCa-2 (P36222 22-383): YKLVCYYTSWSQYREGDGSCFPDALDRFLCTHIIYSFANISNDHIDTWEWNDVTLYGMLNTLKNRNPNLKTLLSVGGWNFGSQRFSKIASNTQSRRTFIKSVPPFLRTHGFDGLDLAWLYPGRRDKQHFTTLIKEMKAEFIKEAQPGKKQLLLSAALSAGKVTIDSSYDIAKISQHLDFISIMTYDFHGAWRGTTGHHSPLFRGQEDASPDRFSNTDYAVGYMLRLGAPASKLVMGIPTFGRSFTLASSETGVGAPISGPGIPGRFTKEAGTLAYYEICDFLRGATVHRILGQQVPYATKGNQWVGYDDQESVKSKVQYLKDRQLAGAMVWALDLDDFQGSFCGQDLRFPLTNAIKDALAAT
T2 sequence (P36222 22-383): as above

B1: R4-4: fully human anti-CHI3L1 IgG1 mAb, Table 1 No. 9; heavy chain SEQ ID NO: 9, light chain SEQ ID NO: 10 (antibody, listed as Homo sapiens)
VH: EVQLLESGGGLLQPGGSLRLSCAASGLTFRNYAMTWVRQAPGKGLEWVSTISGNGDETFYADSVKGHFTISRDNSKDTVYLQMNSLRAEDTAVYYCAKGGHYSFFDSWGQGSPVTVSS
light: NFMLTQPHSVSESPGKTVTISCTRSSGSIASNYVQWYQQRPGSSPTTVIYEDNQRPSGVPDRFSGSIDSSSNSASLTISGLKTEDEADYYCQSYDSSNYVFGTGTKVTVLGQPKANPTVTLFPPSSEELQANKATLVCLISDFYPGAVTVAWKADGSPVKAGVETTKPSKQSNNKYAASSYLSLTPEQWKSHRSYSCQVTHEGSTVEKTVAPAECS
- rCHI3L1 binding to cells [1]: significantly reduced
- binding specificity: recognition of CHI3L2 (CHI3L2): no other chitinase proteins
- p-AKT and p-ERK levels induced by rCHI3L1 (HCT116 and A549 cells): Inhibition of p-AKT and p-ERK
- cell migration ability induced by rCHI3L1 (wound closure area) [2]: significantly reduced cell migration ability
- epitope cluster (hCHI3L1/flag-His): exclusive epitope
- competitive binding class, CHI3L1 293R3-2 (hCHI3L1/flag-His): *^c
- Epitope Binning Heat Map value, CHI3L1 293R3-2 (hCHI3L1/flag-His): 0.5680
- competitive binding class, CHI3L1 293R3-4 (hCHI3L1/flag-His): *^c
- competitive binding class, CHI3L1 R4-4 (hCHI3L1/flag-His): *^a
- Epitope Binning Heat Map value, CHI3L1 R4-4 (hCHI3L1/flag-His): 0.1232
- competitive binding class, CHI3L1 R4-54 (hCHI3L1/flag-His): *^c
- Epitope Binning Heat Map value, CHI3L1 R4-54 (hCHI3L1/flag-His): 1.3845
- spleen metastasis tumor nodules (MiaPaCa cells; 5 mg/kg i.v.): tumor nodules were obviously smaller
- fibrosis indicated by α-SMA (MiaPaCa cells; comparing to IgG control and gemcitabine groups): obviously decrease
- level of CHI3L1 in intratumoral region and plasma (MiaPaCa cells): lower than IgG control group
- infiltrated macrophages in tumor sections (F4/80+, CD206+) (MiaPaCa cells; 5 mg/kg i.v.): more macrophages other than M2 phenotype
- angiogenesis indicated by CD31 expression (MiaPaCa cells): decreased in every treatment groups
- tumor size (MiaPaCa cells): smaller than IgG control group

B2: 293R3-2: fully human anti-CHI3L1 IgG1 mAb, Table 1 No. 2; heavy chain SEQ ID NO: 65, light chain SEQ ID NO: 66 (antibody, listed as Homo sapiens)
VH: QVQLQESGPGLVEPSGTLSLTCAVSGGSISSSNWWSWVRQHPGKGLEWIGEIYHSGSTNYNPSLRSRVTISVDKSKNQFSLELSSVTAADTAVYYCAGDQRMEDDAFDIWGQGTMVTVSS
light: QSALTQPASVSGSPGQSITISCTGTSSDVGGYNYVSWYQQHPGKAPKLMIYDVSNRPSGVSNRFSGSKSGNTASLTISGLQAEDEADYYCSSYTSSSTLYVFGTGTKVTVLGQPKANPTVTLFPPSSEELQANKATLVCLISDFYPGAVTVAWKADGSPVKAGVETTKPSKQSNNKYAASSYLSLTPEQWKSHRSYSCQVTHEGSTVEKTVAPTECS
- rCHI3L1 binding to cells [1]: significantly reduced
- binding specificity: recognition of CHI3L2 (CHI3L2): no other chitinase proteins
- p-AKT and p-ERK levels induced by rCHI3L1 (HCT116 and A549 cells): Inhibition of p-AKT and p-ERK
- cell migration ability induced by rCHI3L1 (wound closure area) [2]: significantly reduced cell migration ability
- epitope cluster (hCHI3L1/flag-His): unidirectional blocking results
- competitive binding class, CHI3L1 293R3-2 (hCHI3L1/flag-His): *^a
- Epitope Binning Heat Map value, CHI3L1 293R3-2 (hCHI3L1/flag-His): 0.2110
- competitive binding class, CHI3L1 293R3-4 (hCHI3L1/flag-His): *^c
- Epitope Binning Heat Map value, CHI3L1 293R3-4 (hCHI3L1/flag-His): 0.6303
- competitive binding class, CHI3L1 R4-4 (hCHI3L1/flag-His): *^c
- Epitope Binning Heat Map value, CHI3L1 R4-4 (hCHI3L1/flag-His): 0.7478
- competitive binding class, CHI3L1 R4-54 (hCHI3L1/flag-His): *^c
- Epitope Binning Heat Map value, CHI3L1 R4-54 (hCHI3L1/flag-His): 0.7349
- level of CHI3L1 in intratumoral region and plasma (MiaPaCa cells): lower than IgG control group
- infiltrated macrophages in tumor sections (F4/80+, CD206+) (MiaPaCa cells; 5 mg/kg i.v.): more macrophages other than M2 phenotype
- angiogenesis indicated by CD31 expression (MiaPaCa cells): decreased in every treatment groups
- tumor size (MiaPaCa cells): smaller than IgG control group

B3: 293R3-4: fully human anti-CHI3L1 IgG1 mAb, Table 1 No. 4; heavy chain SEQ ID NO: 73, light chain SEQ ID NO: 74 (antibody, listed as Homo sapiens)
VH: EVQLVQSGAEVKKPGATVKISCKVSGYSFTDYYIHWVQQAPGKGLEWMGFVDPENGETIYAEKFQGRVTITADTSTDTAYMELSSLRSDDTAVYYCATDRDYDDSSGNAFDIWGQGTMVTVSS
light: SYELTQPPSVSVSTGQTATITCSGDILGDEYAFWYQQKAGQSPVLVIYLDTRRPSGIPERFSGSNSGDTATLTISETQPVDEAVYFCQGWDSSTALYVFGTGTKVTVLGQPKANPTVTLFPPSSEELQANKATLVCLISDFYPGAVTVAWKADGSPVKAGVETTKPSKQSNNKYAASSYLSLTPEQWKSHRSYSCQVTHEGSTVEKTVAPTECS
- rCHI3L1 binding to cells [1]: significantly reduced
- binding specificity: recognition of CHI3L2 (CHI3L2): no other chitinase proteins
- p-AKT and p-ERK levels induced by rCHI3L1 (HCT116 and A549 cells): Inhibition of p-AKT and p-ERK
- cell migration ability induced by rCHI3L1 (wound closure area) [2]: significantly reduced cell migration ability
- epitope cluster (hCHI3L1/flag-His): unidirectional blocking results
- competitive binding class, CHI3L1 293R3-2 (hCHI3L1/flag-His): *^b
- Epitope Binning Heat Map value, CHI3L1 293R3-2 (hCHI3L1/flag-His): 0.1221
- competitive binding class, CHI3L1 293R3-4 (hCHI3L1/flag-His): *^a
- Epitope Binning Heat Map value, CHI3L1 293R3-4 (hCHI3L1/flag-His): 0.3014
- competitive binding class, CHI3L1 R4-4 (hCHI3L1/flag-His): *^c
- Epitope Binning Heat Map value, CHI3L1 R4-4 (hCHI3L1/flag-His): 1.1089
- competitive binding class, CHI3L1 R4-54 (hCHI3L1/flag-His): *^c
- Epitope Binning Heat Map value, CHI3L1 R4-54 (hCHI3L1/flag-His): 0.4217
- level of CHI3L1 in intratumoral region and plasma (MiaPaCa cells): lower than IgG control group
- infiltrated macrophages in tumor sections (F4/80+, CD206+) (MiaPaCa cells; 5 mg/kg i.v.): more macrophages other than M2 phenotype
- angiogenesis indicated by CD31 expression (MiaPaCa cells): decreased in every treatment groups
- tumor size (MiaPaCa cells): smaller than IgG control group
